# From article PMC3958310
# B1: Fab fragment of HMAb 1F4 (Fab, V domains shown)
# VH: QVQLVESGGGVVQPGRSLRLSCAASGFTFSAYGMHWVRQAPGKGLEWVAIIWYDGSNKYYADSVKGRFTISRDNSKNTLHLQMNSLRAEDTAIYYCARDKNPGTKPYYHYGMDVWGQGTTVTVSS
# VL: QSVLTQPPSVSEAPRQRVTISCSGSSSNIGNNAVNWYQQFPGKAPKLLIYYDDLLPSGVSDRFSGSKSGTSASLAISGLQSEDEAYYYCAAWDDSLIGVVFGGGTKLTVL
# Biological target: DENV1 envelope (E) protein, strain Western Pacific 74, on the virus surface (dengue virus serotype 1, strain Western Pacific 74)
binder,measurement,value
B1,"neutralisation of DENV1 (Western Pacific 74) in U937 cells expressing DC-SIGN, flow cytometry, Neut50",0.11 µg/mL
